{"source": "the supplement of paper PMC6379048", "experiment_in_all_cases": "EC50 of free RNA motif oligo competing protein binding to immobilised probe", "key": {"[1]": {"molecular_target": "T1, ZFP36L2 (UniProt P47974)", "T1 sequence": "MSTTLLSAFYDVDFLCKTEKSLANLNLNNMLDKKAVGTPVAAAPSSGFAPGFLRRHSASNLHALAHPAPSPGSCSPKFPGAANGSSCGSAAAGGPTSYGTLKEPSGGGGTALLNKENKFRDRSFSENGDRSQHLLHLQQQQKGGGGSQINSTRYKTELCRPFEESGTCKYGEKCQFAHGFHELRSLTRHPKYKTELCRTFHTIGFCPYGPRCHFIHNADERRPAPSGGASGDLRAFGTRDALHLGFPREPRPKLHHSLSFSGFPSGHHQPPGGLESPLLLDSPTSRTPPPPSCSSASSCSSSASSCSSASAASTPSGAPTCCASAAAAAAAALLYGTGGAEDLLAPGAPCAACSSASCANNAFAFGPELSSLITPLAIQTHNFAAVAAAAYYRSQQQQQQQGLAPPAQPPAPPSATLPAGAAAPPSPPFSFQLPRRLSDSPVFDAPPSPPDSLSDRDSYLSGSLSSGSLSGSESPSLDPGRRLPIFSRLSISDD", "procedure,_shortened": "(§1)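 To obtain EC50, data were fitted with a four-parameter log-logistic model; Kd was then EC50 multiplied by a protein-dependent depletion factor. Beforehand, free RNA oligos (0 nM to 30 μM) were pre-incubated with HEK293-FT lysate (2.5 mg protein/well) for 1 h at 4°C. The lysate then spent 30 min at 4°C with the same 5′-amino-C6 oligos coupled to NHS-Sepharose beads, and bound proteins were quantified by label-free LC-MS/MS, normalised to the control.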"}, "[2]": {"molecular_target": "T2, CSTF2 (UniProt P33240)", "T2 sequence": "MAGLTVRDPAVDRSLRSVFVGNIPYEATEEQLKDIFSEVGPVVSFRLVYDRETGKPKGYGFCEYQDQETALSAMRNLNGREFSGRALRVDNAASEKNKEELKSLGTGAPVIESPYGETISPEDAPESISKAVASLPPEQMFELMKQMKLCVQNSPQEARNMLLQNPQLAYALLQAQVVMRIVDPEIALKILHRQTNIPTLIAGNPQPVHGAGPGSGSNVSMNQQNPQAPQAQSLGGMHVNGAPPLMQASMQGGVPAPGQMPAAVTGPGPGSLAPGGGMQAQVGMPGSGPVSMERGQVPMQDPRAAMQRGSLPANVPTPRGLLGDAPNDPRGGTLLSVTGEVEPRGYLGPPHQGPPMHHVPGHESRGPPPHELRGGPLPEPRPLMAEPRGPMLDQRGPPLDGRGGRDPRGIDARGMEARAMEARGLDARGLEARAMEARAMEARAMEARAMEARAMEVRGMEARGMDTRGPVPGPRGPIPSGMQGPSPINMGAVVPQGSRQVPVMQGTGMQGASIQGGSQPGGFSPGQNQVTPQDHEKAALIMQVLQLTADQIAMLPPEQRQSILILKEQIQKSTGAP", "procedure,_shortened": "as §1"}, "[3]": {"molecular_target": "ELAVL1 (UniProt Q15717)", "sequence (Q15717 whole entry)": "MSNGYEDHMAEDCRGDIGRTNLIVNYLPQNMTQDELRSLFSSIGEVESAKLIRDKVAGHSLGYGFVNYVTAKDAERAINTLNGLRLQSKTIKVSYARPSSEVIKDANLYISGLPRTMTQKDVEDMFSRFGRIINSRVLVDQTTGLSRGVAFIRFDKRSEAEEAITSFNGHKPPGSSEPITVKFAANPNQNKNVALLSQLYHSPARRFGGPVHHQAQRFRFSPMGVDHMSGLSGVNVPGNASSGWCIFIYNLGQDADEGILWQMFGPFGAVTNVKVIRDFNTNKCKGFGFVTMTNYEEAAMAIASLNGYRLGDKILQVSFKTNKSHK", "procedure,_shortened": "as §1"}, "[4]": {"molecular_target": "T3, LSM7 (UniProt Q9UK45)", "T3 sequence": "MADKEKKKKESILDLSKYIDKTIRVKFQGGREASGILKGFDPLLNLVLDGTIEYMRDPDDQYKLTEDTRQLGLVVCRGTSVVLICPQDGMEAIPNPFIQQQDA", "procedure,_shortened": "as §1"}, "[5]": {"molecular_target": "T4, FIP1L1 (UniProt Q6UN15)", "T4 sequence": "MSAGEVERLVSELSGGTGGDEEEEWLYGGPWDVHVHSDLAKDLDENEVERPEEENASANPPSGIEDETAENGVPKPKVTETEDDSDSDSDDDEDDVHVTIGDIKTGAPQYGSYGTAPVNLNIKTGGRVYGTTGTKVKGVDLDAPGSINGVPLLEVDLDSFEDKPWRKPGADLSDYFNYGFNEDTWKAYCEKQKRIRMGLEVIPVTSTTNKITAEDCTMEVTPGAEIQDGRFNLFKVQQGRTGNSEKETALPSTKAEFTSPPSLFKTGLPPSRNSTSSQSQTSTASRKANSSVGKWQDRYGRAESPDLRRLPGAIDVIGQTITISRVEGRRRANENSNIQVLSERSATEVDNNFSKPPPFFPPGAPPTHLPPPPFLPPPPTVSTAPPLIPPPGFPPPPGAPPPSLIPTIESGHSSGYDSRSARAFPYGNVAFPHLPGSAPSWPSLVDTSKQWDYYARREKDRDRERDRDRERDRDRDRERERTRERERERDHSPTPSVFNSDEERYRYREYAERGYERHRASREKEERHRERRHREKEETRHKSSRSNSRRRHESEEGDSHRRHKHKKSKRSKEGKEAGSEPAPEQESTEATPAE", "procedure,_shortened": "as §1"}, "[6]": {"molecular_target": "PABPC4 (UniProt Q13310)", "sequence (Q13310 whole entry)": "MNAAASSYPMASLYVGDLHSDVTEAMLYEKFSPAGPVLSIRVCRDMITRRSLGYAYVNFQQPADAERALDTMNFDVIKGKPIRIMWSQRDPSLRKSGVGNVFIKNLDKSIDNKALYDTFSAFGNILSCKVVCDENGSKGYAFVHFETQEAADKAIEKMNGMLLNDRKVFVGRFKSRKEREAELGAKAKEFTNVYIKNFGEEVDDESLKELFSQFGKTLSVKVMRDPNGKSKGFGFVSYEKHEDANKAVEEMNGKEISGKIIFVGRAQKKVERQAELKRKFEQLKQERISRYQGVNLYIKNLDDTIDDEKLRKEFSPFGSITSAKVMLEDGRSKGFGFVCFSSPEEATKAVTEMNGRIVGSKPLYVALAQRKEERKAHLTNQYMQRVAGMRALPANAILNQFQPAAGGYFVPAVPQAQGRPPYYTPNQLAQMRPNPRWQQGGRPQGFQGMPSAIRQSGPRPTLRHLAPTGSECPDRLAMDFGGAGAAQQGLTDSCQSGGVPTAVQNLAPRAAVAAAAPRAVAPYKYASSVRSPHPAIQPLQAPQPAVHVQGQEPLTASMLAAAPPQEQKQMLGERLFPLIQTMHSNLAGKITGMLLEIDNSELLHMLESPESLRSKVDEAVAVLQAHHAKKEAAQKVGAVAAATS", "procedure,_shortened": "as §1"}, "[7]": {"molecular_target": "HNRNPAB (UniProt Q99729)", "sequence (Q99729 whole entry)": "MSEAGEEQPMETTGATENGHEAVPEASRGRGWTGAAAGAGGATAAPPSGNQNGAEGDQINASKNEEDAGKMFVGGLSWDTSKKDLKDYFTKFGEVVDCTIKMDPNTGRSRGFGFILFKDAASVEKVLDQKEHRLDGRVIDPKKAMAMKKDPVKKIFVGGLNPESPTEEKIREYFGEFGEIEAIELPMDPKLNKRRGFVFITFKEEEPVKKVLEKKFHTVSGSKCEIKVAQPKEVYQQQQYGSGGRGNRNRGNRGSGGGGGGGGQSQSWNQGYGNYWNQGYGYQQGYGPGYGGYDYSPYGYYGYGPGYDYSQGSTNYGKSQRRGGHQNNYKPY", "procedure,_shortened": "as §1"}, "[8]": {"molecular_target": "T5, RBM7 (UniProt Q9Y580)", "T5 sequence": "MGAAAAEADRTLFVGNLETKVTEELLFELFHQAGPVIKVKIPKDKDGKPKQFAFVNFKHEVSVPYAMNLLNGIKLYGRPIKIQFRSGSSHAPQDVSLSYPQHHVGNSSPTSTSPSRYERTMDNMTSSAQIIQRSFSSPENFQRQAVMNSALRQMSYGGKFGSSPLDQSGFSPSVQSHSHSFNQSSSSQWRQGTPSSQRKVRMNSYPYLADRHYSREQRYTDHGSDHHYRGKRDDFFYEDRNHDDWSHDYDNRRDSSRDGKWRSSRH", "procedure,_shortened": "as §1"}}, "data": [{"sequence": "AAUAAA", "values": [{"measurement": "EC50", "setting": "[1]", "result": 1830, "unit": "nM"}, {"measurement": "EC50", "setting": "[2]", "result": 83.9, "unit": "nM"}, {"measurement": "EC50", "setting": "[3]", "result": 5060, "unit": "nM"}, {"measurement": "EC50", "setting": "[4]", "result": 655, "unit": "nM"}, {"measurement": "EC50", "setting": "[5]", "result": 64.8, "unit": "nM"}, {"measurement": "EC50", "setting": "[6]", "result": 4280, "unit": "nM"}, {"measurement": "EC50", "setting": "[7]", "result": 3010, "unit": "nM"}, {"measurement": "EC50", "setting": "[8]", "result": 1930, "unit": "nM"}]}, {"sequence": "UAUUUAU", "values": [{"measurement": "EC50", "setting": "[1]", "result": 61.8, "unit": "nM"}, {"measurement": "EC50", "setting": "[2]", "result": 463, "unit": "nM"}, {"measurement": "EC50", "setting": "[3]", "result": 3040, "unit": "nM"}, {"measurement": "EC50", "setting": "[4]", "result": 302, "unit": "nM"}, {"measurement": "EC50", "setting": "[5]", "result": 1390, "unit": "nM"}, {"measurement": "EC50", "setting": "[6]", "result": 13600, "unit": "nM"}, {"measurement": "EC50", "setting": "[7]", "result": 3090, "unit": "nM"}, {"measurement": "EC50", "setting": "[8]", "result": 312, "unit": "nM"}]}]}
